Reference: publication PMC8622909 (Pharmaceuticals, 2021)

T1: UGT1A9 (Homo sapiens, UniProt O60656)
T1 construct: human recombinant UGT1A9
T1 sequence (O60656 26-530): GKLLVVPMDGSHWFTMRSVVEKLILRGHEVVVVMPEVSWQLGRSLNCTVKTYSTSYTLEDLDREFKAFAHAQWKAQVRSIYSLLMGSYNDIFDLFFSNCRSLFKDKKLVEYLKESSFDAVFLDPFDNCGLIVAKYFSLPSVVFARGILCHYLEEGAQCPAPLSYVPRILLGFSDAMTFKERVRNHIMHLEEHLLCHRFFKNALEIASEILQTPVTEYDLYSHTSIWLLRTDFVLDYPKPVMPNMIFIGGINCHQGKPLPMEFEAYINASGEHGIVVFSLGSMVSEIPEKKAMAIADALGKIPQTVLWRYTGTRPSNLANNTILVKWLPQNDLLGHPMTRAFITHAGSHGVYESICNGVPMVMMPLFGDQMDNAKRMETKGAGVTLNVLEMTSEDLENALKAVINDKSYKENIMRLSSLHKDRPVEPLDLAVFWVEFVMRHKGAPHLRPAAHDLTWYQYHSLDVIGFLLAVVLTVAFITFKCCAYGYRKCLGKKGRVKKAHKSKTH

B1: UGT1A9 (Homo sapiens) (protein)
chain: T1 sequence (O60656 26-530)

Key:
UGT1A9 = molecular target: T1, UGT1A9; experiment: inhibition of PTU glucuronidation by recombinant UGT1A9, HPLC-MS/MS; format: biochemical; conditions: read-out: Magnolol IC50
purified protein = substrate: CCCc1cc(=O)[nH]c(=S)[nH]1; experiment: purified protein; conditions: UDPGA

| Molecule | IC50 (UGT1A9) [nM] | Km (purified protein) [µM] | Vmax (purified protein) [µmol/min/mg] |
| --- | --- | --- | --- |
| C=CCc1ccc(O)c(-c2cc(CC=C)ccc2O)c1 [magnolol] | 1160 |  |  |
| B1 |  | 15.27 ± 7.73 | 0.352 |
